From the supplement of paper PMC10126150
± gives the standard deviation of the averaged measurements.

Tested on: ATP
Test: switch fluorescence ratio, 500 uM ATP over buffer (Cy3 cluster intensity, sum of 5 cycles each) (fold (ratio)); higher = stronger signal-on switching upon ATP binding; sequences stand for … in TCGTCGGCAGCGTCAGATGTGTATAAGAGACAGTTTTTTTTTTTTTTTTTTTTTTTTT…TC
Conditions: aptamer strand: ATP DNA aptamer (quencher-CACCTGGGGGAGTATTGCGGAGGAAGG + anchor), 100 nM annealed; ATP concentration: 500 uM
How it was run: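 For every switch-domain sequence, the fluorescence ratio is the mean of per-cluster values, each being summed target-cycle Cy3 intensity over summed buffer-cycle Cy3 intensity. Clusters outside 100-1000 RFU were excluded. On a modified Illumina MiSeq flow-cell, the Cy3-labelled switching-strand clusters were annealed to 100 nM quencher-labelled ATP aptamer, imaged in selection buffer and then after 15 min with 500 uM ATP at 22 °C. Five such cycles were run, with NaOH stripping and re-annealing between them.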
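Also: ATP exposure 15 min at 22 °C before imaging.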

Sequence	switch fluorescence ratio
TGGGGGTATC	0.978 ± 0.024
ATGCTGGTAT	0.981 ± 0.024
GGGCTAGTGT	0.963 ± 0.01
GTTGAATCTT	0.995 ± 0.035
ACGGGGTGTC	1.08 ± 0.089
AAATACCGCA	1.48 ± 0.17
AGAAGATGGT	0.9827 ± 0.0029
GATGGGAGGA	0.9639 ± 0.005
TTTGGGGTTC	1.02 ± 0.044
TGGCTGACAG	0.992 ± 0.023
AGGGGATGGC	0.946 ± 0.017
CATTAAGGTT	0.996 ± 0.01
TGGAATATTT	1.03 ± 0.044
TTCATGGGG	0.9879 ± 0.0094
TTTGAATAGG	1.01 ± 0.016
GAGGTGAAGG	1.04 ± 0.055
GGGGGCAATT	0.987 ± 0.021
CGGATGTTAT	0.9626 ± 0.0096
TTTCGTATCG	1.01 ± 0.021
AATGGATGTT	1.05 ± 0.12
CCGTGGAAAC	1.14 ± 0.026
AAGTTCTGGA	0.976 ± 0.07
TAGTAGGGGG	0.9691 ± 0.0061

Sequence	switch fluorescence ratio
CTGTATTCTG	0.962 ± 0.015
AGAAGAAGGC	0.988 ± 0.022
CCAGGCTGAG	1.05 ± 0.022
CACTGCGTCT	1.07 ± 0.11
CGGACTAGCG	0.944 ± 0.032
CTATGGGGTG	1.04 ± 0.04
CGTAGGGGGT	1.01 ± 0.03
GAGATGGGTA	0.997 ± 0.027
GTTTGGGTAA	0.99 ± 0.037
CGCTTTCTTT	1.03 ± 0.041
TGTGCATCT	1.01 ± 0.015
TCTGGGTGGA	0.994 ± 0.015
GCGTTAAGTT	0.984 ± 0.035
GAAATTCGGG	0.978 ± 0.025
TTTTGGTGAG	0.972 ± 0.025
AGCCCGGGCA	0.956 ± 0.015
TTGGCACAGT	1.008 ± 0.0048
CTGGTTAGGC	1.01 ± 0.034
GAGTGGGATT	0.981 ± 0.011
TTAGGATTCG	1.02 ± 0.039
ACGTGACCAT	1.33 ± 0.047
TTAAGCGAGC	0.9657 ± 0.0024
TTGAAGTAGC	1.01 ± 0.044

Sequence	switch fluorescence ratio
GATGTCAAGA	1.01 ± 0.023
AAGTTTTGGT	0.964 ± 0.019
TTAAACGTGT	1.04 ± 0.03
TTCCAGTTT	1 ± 0.04
ATAAGTGGTG	0.976 ± 0.036
TAATGTAATG	0.999 ± 0.031
CGTGGGGATG	1.001 ± 0.0031
TCGGGATACT	1.86 ± 0.32
TTTATACTGT	1.03 ± 0.024
TGCAAATTGC	0.997 ± 0.019
CAGGTTTATA	0.993 ± 0.022
ACGGGCACTT	1.12 ± 0.041
TTAAAGTCGA	1.0194 ± 0.00069
GGGTGGCTCG	0.997 ± 0.046
ATAGGGGGAG	1 ± 0.033
TTTGCTGACG	1.02 ± 0.055
AGGATGTGAC	1.01 ± 0.02
AGTTTGGTGG	0.942 ± 0.067
AGACCATCGT	1.01 ± 0.032
ACGATCAGCA	1.05 ± 0.047
ATCGGGAGAC	1.27 ± 0.21
GCATTTGCTT	1.01 ± 0.019
CACGGGTTGC	1.02 ± 0.031

Sequence	switch fluorescence ratio
GCTGTGTAGG	0.994 ± 0.013
GGTTTGAGGA	0.971 ± 0.012
GCGGTCGGGC	0.9952 ± 0.0076
ACTTGAGTTT	0.988 ± 0.01
GATTATTCTG	0.966 ± 0.039
ATTGTAGTTT	1 ± 0.066
GTTGGTTGTT	0.985 ± 0.023
CAATCTTGTC	0.975 ± 0.057
ATCCGTGATA	1.77 ± 0.021
ATAGGATTTG	1.032 ± 0.0096
ACCGCATAGG	1.0484 ± 4.5e-05
GGGGGGCCTC	0.981 ± 0.015
AATAAAAAGG	0.991 ± 0.019
TTAGACGGCC	1.03 ± 0.014
GCAAAAGGGC	1.02 ± 0.014
TCGGGATAGG	1.05 ± 0.018
GCCTGGTTTT	0.979 ± 0.024
CCGGAGGGGT	1.38 ± 0.018
ACGGTCGGCT	1.04 ± 0.048
CGTACGGGCG	0.956 ± 0.028
GAGGGAAAAG	1.01 ± 0.032
GCGTGATTTG	0.9959 ± 0.0045
TATTAAGGTT	0.978 ± 0.021

Sequence	switch fluorescence ratio
CAGGTGTATG	1.273 ± 0.0042
CGACAAAGCC	1.28 ± 0.014
GGGTTTGCTG	1.01 ± 0.076
GTGTCCGTTT	1.05 ± 0.039
ATTAGGGTAT	1.0078 ± 0.00026
GCTTCTAGCT	0.969 ± 0.011
TTTGTAAGTT	0.995 ± 0.03
TGGGAGGGGT	1.01 ± 0.014
TAGCGGGGGG	1.02 ± 0.046
GGGGCAGCCG	1.01 ± 0.059
ACGGGTTTGG	1.01 ± 0.023
TCCCAGTGCT	1.84 ± 0.21
AAGCCTAATG	0.996 ± 0.017
CGGGCCGGGA	0.976 ± 0.025
GGGTTGCATG	0.976 ± 0.016
ATTGCTGGGG	1.01 ± 0.056
GTTCTTGGTG	1.01 ± 0.0089
AATGGGGGAG	0.981 ± 0.0099
TTTCCATCAC	1 ± 0.042
CCGGTAAGTC	1.27 ± 0.026
CATTCTGTGT	1.019 ± 0.0023
TTTGATGTAC	1.05 ± 0.013
TGATCGGGCA	0.956 ± 0.031

Sequence	switch fluorescence ratio
ATGAATAATG	1.01 ± 0.026
TTTCTGAGCT	1.08 ± 0.068
CTTAGGGGTG	0.973 ± 0.011
AGGCTGGCTC	0.98 ± 0.01
ACCTCGTTTC	1.02 ± 0.018
ATTTGGTTTT	0.999 ± 0.04
TTAACAGGAA	1.024 ± 0.0095
TAATGGGGAG	0.993 ± 0.014
AAGCCGTCGG	1.02 ± 0.013
GGGCTTGGGC	0.976 ± 0.035
GGGTGGTGTA	1.07 ± 0.096
GTAGGGATTA	0.9779 ± 0.0064
CGTTCGGGGG	1.01 ± 0.083
AAGGCGCGGC	0.9694 ± 0.0088
CCATTTTGCG	1 ± 0.011
TTGAATTTGG	0.9794 ± 0.0085
AAATCATTAT	1.01 ± 0.019
CAGAGGAGGG	0.9747 ± 0.008
TTTTTATATG	0.999 ± 0.02
TGGGAACGGG	0.983 ± 0.018
ACAGGAGCGT	1.1017 ± 0.00065
TGGTCCAGTG	1.03 ± 0.089
CCAAAGGGCC	1.01 ± 0.071

Sequence	switch fluorescence ratio
AGATGTGTAG	1.04 ± 0.012
TGGGAATGGG	0.986 ± 0.011
CTCGCGTTAA	1.11 ± 0.13
TACCGGTGTC	1.06 ± 0.047
ATCTGATTGA	0.97124 ± 0.00072
CATTTGAAGA	1.01 ± 0.019
TTCTTTGGAT	1.03 ± 0.028
ATCTTCTAGT	0.953 ± 0.041
TTGGTTACAT	0.994 ± 0.013
GGATTAGGTC	1.02 ± 0.019
ACGGGATGTG	0.978 ± 0.016
TGTATGATGT	1.03 ± 0.049
GTGTTAAGGT	0.99 ± 0.019
ACATAAGTG	1.02 ± 0.019
TGCTTCTAAC	1.006 ± 0.0082
AGGGGTGAAA	0.987 ± 0.021
CAGCCCGGTC	1.06 ± 0.048
CATATGATTT	0.993 ± 0.019
TGAGCGTCGG	0.968 ± 0.051
